Assay results: PMC8449271 (The Journal of Biological Chemistry, 2021)

B1: Cryptococcus neoformans AIRs single enzymatic unit (phosphoribosyl-aminoimidazole synthetase), recombinant His-tagged (domain or fragment)
chain: GFGGAFDLAKAGYKDPILVSGTDGVGTKLRVALDHGKHNTVGIDLVAMSVNDLIVQGAEPLYFLDYYACSKLDVPVAADVITGIAEGCLQAGCALIGGETAEMPGMYHGDDYDLAGFAVGVVERAQILPTPDIASGDVLLALSSSGPHSNGFSLIRKIVSLSNLSLHDTAPWDKNTSVGDALLTPTKVYIKPLLPGIKSGLYKGMSHITGGGFTENIPRIFSSASNLGVKLDLTSYSLPAIWKWLMRAGNVEAKEMVRTFNCGVGMIIIVAKDKADAALSSLKENGEEAWVIGEVQEKKGVEYVGLDKFGL
B2: Cryptococcus neoformans bifunctional GARs/AIRs (phosphoribosyl-glycinamide synthetase / phosphoribosyl-aminoimidazole synthetase), recombinant His-tagged (enzyme, UniProt J9VYP5 1-802, looked up)
chain: MPEITAFPQPKSDLSILLLGAGGREHALAFKLAQSSRVARIVVCPGNGGTALMGGKVSNLALPWGAPPAFRSIVEWAQKENIDLVVPGPEQPLVDGVEGAFKKVGIPVFGPSPAAAMLEGSKSLSKEFMARHNIPTAAFRSFTSTQYEDAVAYIKSKPFTSGRSVIKASGLAAGKGVLIPETDEEAFAALKSVMVDKEFGDAGDEVVVEEYLSGPEISVLAFSDGYTIVPMPAAQDHKRIGEGDTGLNTGGMGAYAPAPIATKEIMERCVKDVLEPTIKGMREDGYPFVGMLFTGFMITADGPRVLEYNVRFGDPETQALMLLLDEQTDLAEVLLACVERRLDSIKLGYKQGYAVSVVLASEGYPGSYPKGLPMTLNPTPEGVEVFHAGTKRSDNVTVTDGGRVLAVCASAPTLRAAVDLAYSGISQISFQGQTFRRDIAYRALSSEPPAEPKGLTYAAAGVSVDAGNDLVEAIKPVVKATRRPGADSDIGGFGGAFDLAKAGYKDPILVSGTDGVGTKLRVALDHGKHNTVGIDLVAMSVNDLIVQGAEPLYFLDYYACSKLDVPVAADVITGIAEGCLQAGCALIGGETAEMPGMYHGDDYDLAGFAVGVVERAQILPTPDIASGDVLLALSSSGPHSNGFSLIRKIVSLSNLSLHDTAPWDKNTSVGDALLTPTKVYIKPLLPGIKSGLYKGMSHITGGGFTENIPRIFSSASNLGVKLDLTSYSLPAIWKWLMRAGNVEAKEMVRTFNCGVGMIIIVAKDKADAALSSLKENGEEAWVIGEVQEKKGVEYVGLDKFGL
B3: Cryptococcus neoformans GARs single enzymatic unit (phosphoribosyl-glycinamide synthetase), recombinant His-tagged (domain or fragment)
chain: MPEITAFPQPKSDLSILLLGAGGREHALAFKLAQSSRVARIVVCPGNGGTALMGGKVSNLALPWGAPPAFRSIVEWAQKENIDLVVPGPEQPLVDGVEGAFKKVGIPVFGPSPAAAMLEGSKSLSKEFMARHNIPTAAFRSFTSTQYEDAVAYIKSKPFTSGRSVIKASGLAAGKGVLIPETDEEAFAALKSVMVDKEFGDAGDEVVVEEYLSGPEISVLAFSDGYTIVPMPAAQDHKRIGEGDTGLNTGGMGAYAPAPIATKEIMERCVKDVLEPTIKGMREDGYPFVGMLFTGFMITADGPRVLEYNVRFGDPETQALMLLLDEQTDLAEVLLACVERRLDSIKLGYKQGYAVSVVLASEGYPGSYPKGLPMTLNPTPEGVEVFHAGTKRSDNVTVTDGGRVLAVCASAPTLRAAVDLAYSGISQISFQGQTFRRDIAYRALSSEPPAEP

Target: the molecule itself
Test: mass photometry

Protein	stoichiometry N
B1	2
B2	2
B3	2
